Test results from article PMC8221081.

Molecular target: Gankyrin (Gank) (UniProt Q9Z2X2)
Assay: Gank IP, C/EBPα Western blot
Details: reference: wild-type mice, DEN-treated; sites S193

## C/EBPα (from UniProt P53566) C/EBPα-S193A mice, DEN-treated
  binding against the reference: lost
